The values that follow come from patent US20180016327A1 (Chugai, published 2018).

The assay deals with T1, human C5 (human, UniProt P01031 19-673; P01031 678-1676, Beta and alpha chains are disulfide-linked and the protein is glycosylated.).
T1 construct: Either in-house recombinant C5 or plasma derived C5 (CALBIOCHEM) was used; also called recombinant human C5; plasma derived human C5
Nature of the assay: Biacore, captured antibody, pH 7.4, 37 C.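 Also: biacore binding response of anti-C5 antibody light chain variants captured on chip with human C5 injected, ACES running buffer containing 1.2 mM CaCl₂, parent light chain antibody set to 100.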

Numbering of substitutions follows the chain as printed.

B1: CFP0018 18L 93D (antibody, V domains shown)
VH: QVQLVQSGAEVKKPGSSVKVSCKASGGTFSSYAISWVRQAPGQGLEWMGGIIPIFGTANYAQKFQGRVTITADESTSTAYMELSSLRSEDTAVYYCARQLYGYYELDIWGQGTLVTVSS
VL: DIQMTQSPSSLSASVGDRVTITCRASQSISDDLAWYQQKPGKAPKLLIYEASSLQSGVPSRFSGSGSGTDFTLTISSLQPEDFATYYCQQYNDYPLTFGQGTKVEIK
In the case of B1, the “% binding (parent = 100)” value was 23.8%.

B2: CFP0015 (antibody, V domains shown)
VH: QVQLLESGGGLVQPGGSLRLSCAASGFTFSSYAMSWVRQAPGKGLEWVSAISGSGGSTYYADSVKGRFTISRDNSKNTLYLQMNSLRAEDTAVYYCARGDQIWYDQWYYFDMWGQGTLVTVSS
VL: B1 VL with S30E, S53N, N92D, D93S, Y94S
notes: IgG format
Turning to B2, the “% binding (parent = 100)” value is 100%.

B3: CFP0015 15L 31Y (antibody, V domains shown)
VH: B2 VH
VL: B1 VL with S30E, D31Y, S53N, N92D, D93S, Y94S
Take B3: the “% binding (parent = 100)” value came to 102%.

B4: CFP0015 15L 31S (antibody, V domains shown)
VH: B2 VH
VL: B1 VL with S30E, D31S, S53N, N92D, D93S, Y94S
B4: the “% binding (parent = 100)” value stood at 36.5%.

B5: CFP0015 15L 30N (antibody, V domains shown)
VH: B2 VH
VL: B1 VL with S30N, S53N, N92D, D93S, Y94S
Regarding B5, the “% binding (parent = 100)” value was 21.4%.

B6: CFP0018 18L 96M (antibody, V domains shown)
VH: B1 VH
VL: B1 VL with D93S, L96M
With B6, the “% binding (parent = 100)” value came to 46.2%.

B7: CFP0015 15L 31T (antibody, V domains shown)
VH: B2 VH
VL: B1 VL with S30E, D31T, S53N, N92D, D93S, Y94S
For the molecule B7, the “% binding (parent = 100)” value came out at 15.8%.

B8: CFP0015 15L 30F (antibody, V domains shown)
VH: B2 VH
VL: B1 VL with S30F, S53N, N92D, D93S, Y94S
For B8, the “% binding (parent = 100)” value came to 39.7%.

B9: CFP0015 15L 30Y (antibody, V domains shown)
VH: B2 VH
VL: B1 VL with S30Y, S53N, N92D, D93S, Y94S
B9: the “% binding (parent = 100)” value amounted to 51.3%.

B10: CFP0015 15L 30H (antibody, V domains shown)
VH: B2 VH
VL: B1 VL with S30H, S53N, N92D, D93S, Y94S
Take B10: the “% binding (parent = 100)” value came out at 18.4%.

B11: CFP0018 18L 96I (antibody, V domains shown)
VH: B1 VH
VL: B1 VL with D93S, L96I
As for B11, the “% binding (parent = 100)” value is 56%.

B12: CFP0015 15L 30A (antibody, V domains shown)
VH: B2 VH
VL: B1 VL with S30A, S53N, N92D, D93S, Y94S
Take B12: the “% binding (parent = 100)” value was 25.7%.

B13: CFP0018 18L 96P (antibody, V domains shown)
VH: B1 VH
VL: B1 VL with D93S, L96P
Turning to B13, the “% binding (parent = 100)” value amounted to 18%.

B14: CFP0018 18L 94W (antibody, V domains shown)
VH: B1 VH
VL: B1 VL with D93S, Y94W
Turning to B14, the “% binding (parent = 100)” value is 33.7%.

B15: CFP0015 15L 31A (antibody, V domains shown)
VH: B2 VH
VL: B1 VL with S30E, D31A, S53N, N92D, D93S, Y94S
On to B15, for which the “% binding (parent = 100)” value amounted to 30%.

B16: CFP0015 15L 32N (antibody, V domains shown)
VH: B2 VH
VL: B1 VL with S30E, D32N, S53N, N92D, D93S, Y94S
Take B16: the “% binding (parent = 100)” value turned out to be 10.9%.

B17: CFP0015 15L 32Y (antibody, V domains shown)
VH: B2 VH
VL: B1 VL with S30E, D32Y, S53N, N92D, D93S, Y94S
As to B17, the “% binding (parent = 100)” value worked out at 15.1%.

B18: CFP0015 15L 30T (antibody, V domains shown)
VH: B2 VH
VL: B1 VL with S30T, S53N, N92D, D93S, Y94S
Consider B18, for which the “% binding (parent = 100)” value amounted to 25.1%.

B19: CFP0015 15L 31H (antibody, V domains shown)
VH: B2 VH
VL: B1 VL with S30E, D31H, S53N, N92D, D93S, Y94S
Regarding B19, the “% binding (parent = 100)” value came out at 59.4%.

B20: CFP0015 15L 32Q (antibody, V domains shown)
VH: B2 VH
VL: B1 VL with S30E, D32Q, S53N, N92D, D93S, Y94S
B20: the “% binding (parent = 100)” value was 328%.

B21: CFP0015 15L 32S (antibody, V domains shown)
VH: B2 VH
VL: B1 VL with S30E, D32S, S53N, N92D, D93S, Y94S
Regarding B21, the “% binding (parent = 100)” value amounted to 167%.

B22: CFP0015 15L 30D (antibody, V domains shown)
VH: B2 VH
VL: B1 VL with S30D, S53N, N92D, D93S, Y94S
As for B22, the “% binding (parent = 100)” value was 59.9%.

B23: CFP0018 18L 96Y (antibody, V domains shown)
VH: B1 VH
VL: B1 VL with D93S, L96Y
Regarding B23, the “% binding (parent = 100)” value is 23%.

B24: CFP0015 15L 34N (antibody, V domains shown)
VH: B2 VH
VL: B1 VL with S30E, A34N, S53N, N92D, D93S, Y94S
Turning to B24, the “% binding (parent = 100)” value was found to be 100%.

B25: CFP0018 18L 94F (antibody, V domains shown)
VH: B1 VH
VL: B1 VL with D93S, Y94F
For the molecule B25, the “% binding (parent = 100)” value came to 28.6%.

B26: CFP0018 18L 96F (antibody, V domains shown)
VH: B1 VH
VL: B1 VL with D93S, L96F
For the molecule B26, the “% binding (parent = 100)” value is 31.8%.

B27: CFP0015 15L 31N (antibody, V domains shown)
VH: B2 VH
VL: B1 VL with S30E, D31N, S53N, N92D, D93S, Y94S
As for B27, the “% binding (parent = 100)” value is 42.2%.

B28: CFP0015 15L 31Q (antibody, V domains shown)
VH: B2 VH
VL: B1 VL with S30E, D31Q, S53N, N92D, D93S, Y94S
B28: the “% binding (parent = 100)” value turned out to be 25.8%.

B29: CFP0015 15L 32T (antibody, V domains shown)
VH: B2 VH
VL: B1 VL with S30E, D32T, S53N, N92D, D93S, Y94S
For B29, the “% binding (parent = 100)” value came to 78.1%.

B30: CFP0018 18L 93G (antibody, V domains shown)
VH: B1 VH
VL: B1 VL with D93G
For B30, the “% binding (parent = 100)” value was determined as 79.1%.

B31: CFP0018 18L 94H (antibody, V domains shown)
VH: B1 VH
VL: B1 VL with D93S, Y94H
Consider B31, for which the “% binding (parent = 100)” value was 17.6%.

B32: CFP0018 18L 96H (antibody, V domains shown)
VH: B1 VH
VL: B1 VL with D93S, L96H
Take B32: the “% binding (parent = 100)” value amounted to 114%.

B33: CFP0015 15L 30S (antibody, V domains shown)
VH: B2 VH
VL: B1 VL with S53N, N92D, D93S, Y94S
With B33, the “% binding (parent = 100)” value was found to be 23.1%.

B34: CFP0018 18L 96V (antibody, V domains shown)
VH: B1 VH
VL: B1 VL with D93S, L96V
For the molecule B34, the “% binding (parent = 100)” value amounted to 70.3%.

B35: CFP0015 15L 30P (antibody, V domains shown)
VH: B2 VH
VL: B1 VL with S30P, S53N, N92D, D93S, Y94S
Consider B35, for which the “% binding (parent = 100)” value worked out at 60.9%.

B36: CFP0015 15L 32E (antibody, V domains shown)
VH: B2 VH
VL: B1 VL with S30E, D32E, S53N, N92D, D93S, Y94S
Take B36: the “% binding (parent = 100)” value was 87.3%.

B37: CFP0015 15L 31E (antibody, V domains shown)
VH: B2 VH
VL: B1 VL with S30E, D31E, S53N, N92D, D93S, Y94S
As to B37, the “% binding (parent = 100)” value stood at 22.4%.

B38: CFP0018 18L 96W (antibody, V domains shown)
VH: B1 VH
VL: B1 VL with D93S, L96W
B38: the “% binding (parent = 100)” value was 16.9%.

B39: CFP0015 15L 30Q (antibody, V domains shown)
VH: B2 VH
VL: B1 VL with S30Q, S53N, N92D, D93S, Y94S
B39: the “% binding (parent = 100)” value was 42.6%.

B40: CFP0015 15L 32H (antibody, V domains shown)
VH: B2 VH
VL: B1 VL with S30E, D32H, S53N, N92D, D93S, Y94S
With B40, the “% binding (parent = 100)” value is 0.8%.

B41: CFP0015 15L 50A (antibody, V domains shown)
VH: B2 VH
VL: B1 VL with S30E, E50A, S53N, N92D, D93S, Y94S
For B41, the “% binding (parent = 100)” value was 44.2%.

B42: CFP0018 18L 93R (antibody, V domains shown)
VH: B1 VH
VL: B1 VL with D93R
For B42, the “% binding (parent = 100)” value is 136%.

B43: CFP0018 18L 93N (antibody, V domains shown)
VH: B1 VH
VL: B1 VL with D93N
Turning to B43, the “% binding (parent = 100)” value came out at 107%.
